From the supplement of paper PMC7877785 come the findings set out here.

The nature of the data set: self-splicing fitness, log relative to wild type (ln ratio); higher = more splicing; Tetrahymena group I intron in knt gene, E. coli kanamycin selection, DiMSum; sequences stand for … in CUCUCU…GGAGGGAAAAGUUAUCAGGCAUGCACCUGGUAGCUAGUCUUUAAACCAAUAGAUUGCAUCGGUUUAAAAGGCAAGACCGUCAAAUUGCGGGAAAGGGGUCAACAGCCGUUCAGUACCAAGUCUCAGGGGAAACUUUGAGAUGGCCUUGCAAAGGGUAUGGUAAUAAGCUGACGGACAUGGUCCUAACCACGCAGCCAAGUCCUAAGUCAACAGAUCUUCUGUUGAUAUGGAUGCAGUUCACAGACUAAAUGUCGGUCGGGGAAGAUGUAUUCUUCUCAUAAGAUAUAGUCGGACCUCUCCUUAAUGGGAGCUAGCGGAUGAAGUGAUGCAACACUGGAGCCGCUGGGAACUAAUUUGUAUGCGAAAGUAUAUUGAUUAGUUUUGGAGUACUCGUGGUCG
The method in brief:
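DiMSum derived fitness as the error-weighted combination of fold changes across replicates, kanamycin versus no kanamycin, normalised to wild type. E. coli BL21(DE3) held the library, which randomised all eight P1ex-region intron nucleotides within the knt kanamycin-resistance gene on pET-22b(+). Six replicate transformations grew overnight at 37°C or 30°C on LB agar with or without 25 μg/mL kanamycin, also containing 100 μg/mL carbenicillin, 50 μM IPTG and 0.2% rhamnose, and pooled colonies were amplicon-sequenced on an Illumina HiSeq 2500.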

± gives the uncertainty stated by the source.

For GGUAAGCAAUAUUACGUCUC, the “self-splicing fitness (ln)” value was -1.04 ± 0.13 (30 °C) and -1.27 ± 0.16 (37 °C). For the sequence GGUAAGCAAUAUUACGUCUG, the “self-splicing fitness (ln)” value was -1.85 ± 0.14 (30 °C) and -1.51 ± 0.1 (37 °C). For the sequence GGUAAGCAAUAUUACGUUUC, the “self-splicing fitness (ln)” value is, setting by setting: (30 °C) -3.52 ± 0.27; (37 °C) 0.249 ± 0.15. Consider GGUCAGCAAUAUUACGAACA, for which the “self-splicing fitness (ln)” value (30 °C) was -0.818 ± 0.14 and the “self-splicing fitness (ln)” value (37 °C) is -0.749 ± 0.17. For GGUCAGCAAUAUUACGACAA, the “self-splicing fitness (ln)” value by setting is: (30 °C) -0.264 ± 0.062; (37 °C) 0.179 ± 0.093. GGUCAGCAAUAUUACGACCG: the “self-splicing fitness (ln)” value was -1.89 ± 0.17 (30 °C) and -1.26 ± 0.19 (37 °C).

On to GGUCAGCAAUAUUACGAGAC, for which the “self-splicing fitness (ln)” value is, setting by setting: (30 °C) -2.27 ± 0.23; (37 °C) -1.29 ± 0.31. Take GGUCAGCAAUAUUACGAGGA: the “self-splicing fitness (ln)” value (37 °C) is -1.73 ± 0.36.

Regarding GGUCAGCAAUAUUACGAUUC, the “self-splicing fitness (ln)” value runs as follows: (30 °C) -0.716 ± 0.079; (37 °C) -0.325 ± 0.11. On the same counts, the results for GGUCAGCAAUAUUACGCAUC are -0.704 ± 0.091 and -0.125 ± 0.1. Consider GGUCAGCAAUAUUACGCCAU, for which the “self-splicing fitness (ln)” value runs as follows: (30 °C) -3.36 ± 0.3; (37 °C) -0.853 ± 0.17. For GGUCAGCAAUAUUACGCGCA, in that order: -0.219 ± 0.13 and -0.27 ± 0.12. Regarding GGUCAGCAAUAUUACGCGUU, the “self-splicing fitness (ln)” value runs as follows: (30 °C) -0.112 ± 0.084; (37 °C) 0.0966 ± 0.13. For the sequence GGUCAGCAAUAUUACGCUCG, the “self-splicing fitness (ln)” value by setting is: (30 °C) -0.0238 ± 0.095; (37 °C) 0.341 ± 0.12. For the sequence GGUCAGCAAUAUUACGCUCU, the “self-splicing fitness (ln)” value (30 °C) was -1.58 ± 0.2 and the “self-splicing fitness (ln)” value (37 °C) worked out at 0.397 ± 0.34. Turning to GGUCAGCAAUAUUACGCUUG, the “self-splicing fitness (ln)” value is, setting by setting: (30 °C) -0.955 ± 0.07; (37 °C) -0.556 ± 0.096. As to GGUCAGCAAUAUUACGGAUC, the “self-splicing fitness (ln)” value is, setting by setting: (30 °C) -2.95 ± 0.22; (37 °C) -0.0513 ± 0.21. Take GGUCAGCAAUAUUACGGCAC: the “self-splicing fitness (ln)” value (30 °C) is -0.775 ± 0.13 and the “self-splicing fitness (ln)” value (37 °C) was 0.566 ± 0.16. With GGUCAGCAAUAUUACGGCCU, the “self-splicing fitness (ln)” value (30 °C) was -2.84 ± 0.29 and the “self-splicing fitness (ln)” value (37 °C) was -2.34 ± 0.45. Regarding GGUCAGCAAUAUUACGGGAC, the “self-splicing fitness (ln)” value reads like this: (30 °C) -1.72 ± 0.15; (37 °C) -2.96 ± 0.4. For GGUCAGCAAUAUUACGGGUA, in that order: -1.57 ± 0.12 and -0.686 ± 0.1. As for GGUCAGCAAUAUUACGGUAC, the “self-splicing fitness (ln)” value (30 °C) is 0.214 ± 0.15 and the “self-splicing fitness (ln)” value (37 °C) turned out to be 0.298 ± 0.17.

Consider GGUCAGCAAUAUUACGGUCC, for which the “self-splicing fitness (ln)” value by setting is: (30 °C) -3.1 ± 0.39; (37 °C) -1.81 ± 0.37. As to GGUCAGCAAUAUUACGUCGG, the “self-splicing fitness (ln)” value (30 °C) was -3.9 ± 0.36 and the “self-splicing fitness (ln)” value (37 °C) is -0.891 ± 0.19. As to GGUCAGCAAUAUUACGUUUA, the “self-splicing fitness (ln)” value is, setting by setting: (30 °C) -1.23 ± 0.1; (37 °C) -0.167 ± 0.1. GGUGAGCAAUAUUACGAACA: the “self-splicing fitness (ln)” value reads like this: (30 °C) -0.64 ± 0.34; (37 °C) 0.394 ± 0.47. For the sequence GGUGAGCAAUAUUACGAAGU, the “self-splicing fitness (ln)” value by setting is: (30 °C) -2.25 ± 0.23; (37 °C) -1.67 ± 0.35. Turning to GGUGAGCAAUAUUACGACAU, the “self-splicing fitness (ln)” value reads like this: (30 °C) -1.27 ± 0.016; (37 °C) -0.567 ± 0.035.

Regarding GGUGAGCAAUAUUACGACGA, the “self-splicing fitness (ln)” value is, setting by setting: (30 °C) -1.32 ± 0.22; (37 °C) -0.954 ± 0.34.

Turning to GGUGAGCAAUAUUACGACUA, the “self-splicing fitness (ln)” value runs as follows: (30 °C) -0.202 ± 0.17; (37 °C) -0.327 ± 0.17. For the sequence GGUGAGCAAUAUUACGAGCA, the “self-splicing fitness (ln)” value is -0.652 ± 0.23 (30 °C) and -1.1 ± 0.29 (37 °C). With GGUGAGCAAUAUUACGAUAA, the “self-splicing fitness (ln)” value (30 °C) is -1.22 ± 0.47.

Consider GGUGAGCAAUAUUACGAUUC, for which the “self-splicing fitness (ln)” value runs as follows: (30 °C) -0.904 ± 0.089; (37 °C) 0.137 ± 0.11. On to GGUGAGCAAUAUUACGCACU, for which the “self-splicing fitness (ln)” value is, setting by setting: (30 °C) -3.35 ± 0.44; (37 °C) -2.9 ± 0.43. GGUGAGCAAUAUUACGGCGC: the “self-splicing fitness (ln)” value (30 °C) is -0.434 ± 0.13 and the “self-splicing fitness (ln)” value (37 °C) was -0.198 ± 0.19.

On to GGUGAGCAAUAUUACGGGUA, for which the “self-splicing fitness (ln)” value reads like this: (30 °C) -2.58 ± 0.31; (37 °C) -1.64 ± 0.38. Consider GGUGAGCAAUAUUACGGUAC, for which the “self-splicing fitness (ln)” value (30 °C) is -1.95 ± 0.13 and the “self-splicing fitness (ln)” value (37 °C) is -1.4 ± 0.18. On to GGUGAGCAAUAUUACGGUCA, for which the “self-splicing fitness (ln)” value was -1.77 ± 0.32 (30 °C) and -1.79 ± 0.38 (37 °C).
